Assay results reported in PMC6212769, “CRISPR–Cas adaptation in Escherichia coli requires RecBCD helicase but not nuclease activity, is independent of homologous recombination, and is antagonized by 5′ ssDNA exonucleases”.

Columns and labels:
[1] = biological target: T1, Cas1-Cas2 complex (Escherichia coli, UniProt Q46896;P45956 1-305;1-94); test: EMSA; no Mg2+ added; EMSA: 20 nM DNA, 0-500 nM Cas1-Cas2, 20 mM Tris-HCl pH 8.0, BSA 100 (ug/ml), 7% glycerol, 37 C 30 min; 5% acrylamide TBE gel; conditions: protein: recombinant, tags: Cas1 N-terminal His6, Cas2 untagged, chain copies: 4;2, label: 5'-Cy5 on strand 1, 10 bp duplex
T1 sequence 1: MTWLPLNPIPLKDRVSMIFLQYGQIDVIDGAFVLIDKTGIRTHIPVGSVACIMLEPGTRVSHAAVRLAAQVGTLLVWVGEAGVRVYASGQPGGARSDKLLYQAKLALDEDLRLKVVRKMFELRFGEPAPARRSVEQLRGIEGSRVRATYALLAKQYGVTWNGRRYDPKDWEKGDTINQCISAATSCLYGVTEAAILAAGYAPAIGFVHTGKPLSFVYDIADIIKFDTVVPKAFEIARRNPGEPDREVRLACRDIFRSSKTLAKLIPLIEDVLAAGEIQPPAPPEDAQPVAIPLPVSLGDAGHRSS
T1 sequence 2: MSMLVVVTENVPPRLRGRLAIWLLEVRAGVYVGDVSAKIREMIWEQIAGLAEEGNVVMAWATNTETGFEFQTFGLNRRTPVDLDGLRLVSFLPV

[2] = biological target: T1, Cas1-Cas2 complex; test: EMSA; no Mg2+ added; complex formation improved over DNA-10; EMSA: 20 nM DNA, 0-500 nM Cas1-Cas2, 20 mM Tris-HCl pH 8.0, BSA 100 (ug/ml), 7% glycerol, 37 C 30 min; 5% acrylamide TBE gel; conditions: protein: recombinant; tags: Cas1 N-terminal His6; Cas2 untagged; chain copies: 4;2; label: 5'-Cy5 on strand 1; 14 bp duplex, 5' overhang 36 nt
[3] = biological target: T1, Cas1-Cas2 complex; test: EMSA; no Mg2+ added; up to 500 nM; EMSA: 20 nM DNA, 0-500 nM Cas1-Cas2, 20 mM Tris-HCl pH 8.0, BSA 100 (ug/ml), 7% glycerol, 37 C 30 min; 5% acrylamide TBE gel; conditions: protein: recombinant; tags: Cas1 N-terminal His6; Cas2 untagged; chain copies: 4;2; label: 5'-Cy5 on strand 1; blunt

B1: DNA-10 (mixed)
DNA 1: AATCAAAGTGGACCCAACTCGAAATCAACCGTAACAAGCAACAAGCAGGC
DNA 2: GCCTGCTTGT
binding result ([1]; 5' overhang 40 nt): binds

B2: DNA-14 (mixed)
DNA 1: AATCAAAGTGGACCCAACTCGAAATCAACCGTAACAAGCAACAAGCAGGC
DNA 2: GCCTGCTTGTTGCT
binding result [2]: binds

B3: Duplex (dsDNA)
DNA 1: AATCAAAGTGGACCCAACTCGAAATCAACCGTAACAAGCAACAAGCAGGC
DNA 2: GCCTGCTTGTTGCTTGTTACGGTTGATTTCGAGTTGGGTCCACTTTGATT
binding result [3]: no binding

B4: DNA-3' (3' overhang) (mixed)
DNA 1: CGGACGAACAACGAACAATGCCAACTAAAGCTCAACCCAGGTGAAACTAA
DNA 2: TGTTCGTCCG
binding result ([1]; 3' overhang 40 nt): binds
